Laboratory results as given in doi:10.1101/2024.05.01.592117 (2024).

How the values were obtained:
[1] = target: T1, 40S small ribosomal subunit (salt-washed, purified) (human, UniProt P23396 1-243); assay: FP; 40S with eIF1 and eIF1A
[2] = target: T1, 40S small ribosomal subunit …; assay: FP
[3] = target: 43S preinitiation complex (40S + eIFs 1, 1A, 5, 3j, eIF2-TC and eIF3) (human, UniProt P23396 1-243; P41567 1-113; P47813 1-144; P55010 1-431; O75822 1-258; P55884 …); assay: FP

Kd [1]: 71 nM
Kd [2]: ~5 nM
Kd [3]: ~3000 nM
B1: fluorescence-labeled Pdcd4-NTD (FL-Pdcd4-NTD, residues 1-156) (domain or fragment)
chain: MDVENEQILNVNPADPDNLSDSLFSGDEENAGTEEIKNEINGNWISASSINEARINAKAKRRLRKNSSRDSGRGDSVSDSGSDALRSGLTVPTSPKGRLLDRRSRSGKGRGLPKKGGAGGKGVWGTPGQVYDVEEVDVKDPNYDDDQENCVYETVV
modifications: fluorescein-5-maleimide on the single cysteine C150
